Assay results published in US11098124B2, “CD31 shed as a molecular target for imaging of inflammation” (INSTITUT NATIONAL DE LA SANTE ET DE LA RECHERCHE MEDICALE …, priority 2016, dated 2021).
Entries after “also recorded” stand apart in the source; their conditions may differ. Where a SMILES comes first, the peptide text is derived from it. [ ]: non-standard residue; d: D form. The star is where a group is joined. ξ: configuration not given here. HYNIC = NNc1ccc(C(=O)*)cn1; PEG3 = NCCOCCOCCOCCC(=O)O; ξK = NCCCCC(N)C(=O)O

Tests used:
[1] = test system: abdominal aorta aneurysm (AAA) rat model of vascular inflammation; test: SPECT/CT imaging in abdominal aorta aneurysm (AAA) model; format: in vivo; details: for Pattern of biodistribution / blood clearance route (in words): AAA rat, 74 MBq i.v., SPECT/CT
Description: Rat model of vascular inflammation that has been set up at the laboratory: the experimental abdominal aorta aneurysm (AAA) induced by local infusion of elastase and followed by intravenous injection of a periodontal bacterium present in human AAA (Porphyromonas gingivalis) and known to induce AAA inflammation (Delbosc et al., 2011, PLoS ONE 6(4): e18679. doi:10.1371/journal.pone.0018679).
Immediately after intravenous injection via the penis vein of 74 MBq of radiolabelled HYNIC-P8RI (obtained using Tricine/EDDA), sequential whole-body acquisitions (every 10 minutes for the first hour) were performed with a hybrid SPECT/CT camera (NanoSPECT/CT, Bioscan Inc.) dedicated to small animals. 10. […] Results 1. Radiolabeling 6-Hydrazinopyridine-3-carboxylic acid (HYNIC) was coupled to the N-terminal amino-acid of the P8RI peptide via a 3(PEG) spacer to obtain HYNIC-P8RI. HYNIC-P8RI was then labeled at high specific activities (>71 GBq/μmol) using tricine, EDDA or Tricine/EDDA as coligands. The tricine/EDDA exchange labeling strategy was chosen because of high labeling yield and resulting in a single major specie as analyzed by HPLC (see FIG. 1).

plasma proteins = test: in vitro; details: human, fresh human plasma
Description: (§1) A Dionex Ultimate 3000 system coupled to a Berthold radiometric detector was used for RP-HPLC analysis. A ACE 3 C18, 3μ, 100 Å, 150×4.6 mm column, at a flow rate of 1 mL/min and with UV detection at 220 nm, was employed with the following mobile phases, A: 0.1% TFA/water), B Acetonitrile (ACN). Gradient was: 0-2 min 23% B, 2-20 min 23-50% B, 20-23 min 50-100% B, 23-25 min 100-23% B, 25-28 min 23% B. 2.2 Thin Layer Chromatography TLC was performed using a radiochromatogaph (MiniGita, Raytest, Germany). Stationary phase was silica gel (ITLC-SG, Agilent technologies, USA) and different mobile phases were employed. MEK was used to determine the amount of free ^99mTcO4^− (Rf=1), Anticoagulant Citrate Dextrose Solution (ACD-A, Baxter International, USA) to determine non-peptide-bound ^99mTc-coligands and ^99mTcO4^− (Rf=1), 60% ACN for ^99mTc-colloid (Rf=0). […] In Vitro Stability Study Stability of ^99mTc complexes was assessed in fresh human plasma at 37° C. after 0 min, 30 min, 1 hour, 2 hours and 4 hours of incubation at a concentration of 100 μmol/mL. […] Supernatants were collected and filtered (Millex-GV 0.22 μm PVDF, Merck Millipore, Germany) then assessed by radio-HPLC. […] After one hour, rat was sacrificed and urine was directly collected from the bladder using a syringe and analyzed by radio-HPLC after a 0.22 μm filtration (Millex-GV 0.22 μm PVDF, Merck Millipore, Germany). […]

[2] = male wistar rat, 74 MBq, urine from bladder 1 hour after injection; listed as [99mTc]EDDA/HYNIC-P8RI
Description: as §1

[3] = 37° C.
Description: as §1

CC(C)C[C@@H](NC(=O)[C@@H](C)NC(=O)[C@H]1CCCN1C(=O)[C@@H](Cc1c[nH]c2ccccc12)NC(=O)C(CCCCN)NC(=O)CCOCCOCCOCCNC(=O)c1ccc(NN)nc1)C(=O)N[C@H](Cc1ccccc1)C(=O)N[C@@H](C(=O)N[C@H](CCCNC(=N)N)C(=O)O)C(C)C (stereo partly drawn) [99mTc-HYNIC-P8RI, metal not drawn] ({HYNIC-PEG3}-[ξK][dW][dP][dA][dL][dF][dV][dR]-OH)
Pattern of biodistribution / blood clearance route (in words) [1]: almost exclusive renal uptake and excretion
Pattern of biodistribution / blood clearance route (in words) ([1]; listed as [99mTc]EDDA/HYNIC-P8RI): tracer elimination via kidneys; also recorded: almost exclusively renal
Blood clearance rate (in words) ([1]; in vivo, rat): rapid blood clearance
Time of peak activity in kidneys and bladder after injection ([1]; rat, i.v. injection): 1 h
fraction unbound at 4 h (plasma proteins): > 0.95
In vivo stability: species excreted in rat urine by radio-HPLC (in words) [2]: unaltered form of the peptide
RCP (radiochemical purity) after incubation in human plasma ([3]; 4 h of incubation, tricine/EDDA coligands): > 89%
In vitro stability in human plasma (in words) ([3]; up to 4 h, radio-HPLC, listed as [99mTc]EDDA/HYNIC-P8RI): no significant release of degraded radiolabelled peptide
